Measured values reported in US20100167390, “Novel Oligonucleotide and NF-kB Decoy Comprising the Same” (published 2010).

T1: NF-kB p52 (NFKB2) (UniProt Q00653 Q00653:1-454)
T1 sequence: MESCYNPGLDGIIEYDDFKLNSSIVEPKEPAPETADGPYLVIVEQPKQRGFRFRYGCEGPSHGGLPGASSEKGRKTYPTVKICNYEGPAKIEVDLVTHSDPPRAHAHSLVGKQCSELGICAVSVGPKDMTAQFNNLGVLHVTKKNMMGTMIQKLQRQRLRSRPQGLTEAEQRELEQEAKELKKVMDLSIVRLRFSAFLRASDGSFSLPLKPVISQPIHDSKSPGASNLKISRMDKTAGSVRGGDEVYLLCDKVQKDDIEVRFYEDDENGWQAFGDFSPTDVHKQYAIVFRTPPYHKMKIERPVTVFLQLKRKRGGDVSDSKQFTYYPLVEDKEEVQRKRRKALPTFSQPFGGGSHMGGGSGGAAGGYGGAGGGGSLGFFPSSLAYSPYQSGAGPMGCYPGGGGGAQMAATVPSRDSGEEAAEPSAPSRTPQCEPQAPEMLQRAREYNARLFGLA

B1: SODN91 (dsDNA)
DNA 1: GTAAAATGGGATTTCCCGAG
DNA 2: CTCGGGAAATCCCATTTTAC
modifications: PS all bonds, both strands
B2: PSODN7 (dsDNA)
DNA 1: CGCGGGATTTCCCAGC
DNA 2: GCTGGGAAATCCCGCG
modifications: PS only within consensus gggatttccc, both strands
B3: PSODN17 (dsDNA)
DNA 1: CCCTGGGATTTCCCGCC
DNA 2: GGCGGGAAATCCCAGGG
modifications: PS only within consensus gggatttccc, both strands
B4: Control decoy (conventional NF-kB decoy) (dsDNA)
DNA 1: CCTTGAAGGGATTTCCCTCC
DNA 2: GGAGGGAAATCCCTTCAAGG
modifications: PS all bonds, both strands
B5: SODN83 (dsDNA)
DNA 1: CAAGTAGGGATTTCCCATAC
DNA 2: GTATGGGAAATCCCTACTTG
modifications: PS all bonds, both strands
B6: PSODN8 (dsDNA)
DNA 1: CCCGGGATTTCCCACC
DNA 2: GGTGGGAAATCCCGGG
modifications: PS only within consensus gggatttccc, both strands
B7: SODN9 (dsDNA)
DNA 1: GGAGGGATTTCCCGGG
DNA 2: CCCGGGAAATCCCTCC
modifications: PS all bonds, both strands
B8: SODN7 (dsDNA)
DNA 1: CGCGGGATTTCCCAGC
DNA 2: GCTGGGAAATCCCGCG
modifications: PS all bonds, both strands
B9: SODN27 (dsDNA)
DNA 1: CGCAGGGATTTCCCGCGC
DNA 2: GCGCGGGAAATCCCTGCG
modifications: PS all bonds, both strands
B10: SODN6 (dsDNA)
DNA 1: CGAGGGATTTCCCGGC
DNA 2: GCCGGGAAATCCCTCG
modifications: PS all bonds, both strands
B11: PSODN30 (dsDNA)
DNA 1: GGCTGGGATTTCCCGCGG
DNA 2: CCGCGGGAAATCCCAGCC
modifications: PS only within consensus gggatttccc, both strands
B12: FSODN16 (dsDNA)
DNA 1: CGCAGGGATTTCCCGCG
DNA 2: CGCGGGAAATCCCTGCG
modifications: PS only in flanks and flank-core bonds
B13: SODN17 (dsDNA)
DNA 1: CCCTGGGATTTCCCGCC
DNA 2: GGCGGGAAATCCCAGGG
modifications: PS all bonds, both strands
B14: SODN8 (dsDNA)
DNA 1: CCCGGGATTTCCCACC
DNA 2: GGTGGGAAATCCCGGG
modifications: PS all bonds, both strands
B15: PSODN16 (dsDNA)
DNA 1: CGCAGGGATTTCCCGCG
DNA 2: CGCGGGAAATCCCTGCG
modifications: PS only within consensus gggatttccc, both strands
B16: SODN16 (dsDNA)
DNA 1: CGCAGGGATTTCCCGCG
DNA 2: CGCGGGAAATCCCTGCG
modifications: PS all bonds, both strands
B17: PSODN9 (dsDNA)
DNA 1: GGAGGGATTTCCCGGG
DNA 2: CCCGGGAAATCCCTCC
modifications: PS only within consensus gggatttccc, both strands

What was measured:
[1] = target: T2, NF-kB p65 (RelA) (UniProt Q04206 Q04206:1-551); test: competition; primary screen 3.06; conditions: protein: extract; tags: TPA and CI-stimulated Jurkat nuclear extract, Active Motif TransAM kit
T2 sequence (Q04206 whole entry, one chain of several): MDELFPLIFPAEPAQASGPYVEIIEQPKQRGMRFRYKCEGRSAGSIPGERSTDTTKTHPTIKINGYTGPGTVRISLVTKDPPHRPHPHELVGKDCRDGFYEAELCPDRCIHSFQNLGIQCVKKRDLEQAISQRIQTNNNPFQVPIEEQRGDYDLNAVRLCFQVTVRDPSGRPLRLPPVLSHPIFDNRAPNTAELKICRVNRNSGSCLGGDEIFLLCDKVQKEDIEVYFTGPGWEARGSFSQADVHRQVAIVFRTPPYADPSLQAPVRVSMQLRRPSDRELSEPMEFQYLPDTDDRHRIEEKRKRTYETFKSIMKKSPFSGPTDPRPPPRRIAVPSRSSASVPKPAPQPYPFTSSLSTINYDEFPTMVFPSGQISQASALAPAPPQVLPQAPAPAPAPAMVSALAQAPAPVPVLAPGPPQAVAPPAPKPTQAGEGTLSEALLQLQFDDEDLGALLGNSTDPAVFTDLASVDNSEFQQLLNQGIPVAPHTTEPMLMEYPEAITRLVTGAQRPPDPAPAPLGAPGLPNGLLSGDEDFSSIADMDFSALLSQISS
Protocol: (§1) The measurement was performed in accordance with the instructions attached to the kit. The kit was made for quantifying the NF-κB bound to the solid phase by ELISA after adding an NF-κB solution to the wells in which the NF-κB (p65 protein) consensus binding sequence was immobilized and after washing the resultant. By this measurement method, the higher the binding capacity of the oligonucleotide to the NF-κB, the smaller amount of the NF-κB quantified by the ELISA.
(§2) More concretely, the above-described measurement was carried out as follows concretely: Each SODN solution was serially diluted with Complete Binding Buffer contained in the kit to prepare test samples (common ratio: 3-fold, 4 times, n=3). […] After allowing coloration for 10 minutes, the Stop Solution was added to stop the reaction, and the absorbances at 450 nm and 630 nm were measured.
(§3) The absorbance at 630 nm was subtracted from the absorbance at 450 nm and the mean value of the blanks was further subtracted from the resultant, and the percentage of the mean value of each concentration based on the mean value of the controls was calculated. The concentration at which the calculated value was 50% (i.e., at which the binding was inhibited by 50%) was calculated from the regression lines between two points interposing 50% (an analysis software Graph Pad PRISM 4, GraphPad SOFTWARE was used). […]

[2] = target: T1, NF-kB p52 (NFKB2); test: competition; conditions: protein: extract; tags: Raji nuclear extract, Active Motif
Protocol: (§4) The study was carried out in basically the same manner as in the above-described primary screening. The activities to inhibit the binding of various NF-κB family proteins to the consensus NF-κB binding site were compared under the conditions of common ratio of 3-fold, 6 times, n=2. As a control for comparison, fully phosphorothioated decoy oligonucleotide […] (SEQ ID NO:103) was used. The binding inhibition tests against various NF-κB family proteins were conducted using NF-κB Family TransAM Kit (ACTIVE MOTIF), and using NF-κB molecules in the Jurkat, TPA and CI-Stimulated, Nuclear Extract (ACTIVE MOTIF) for p50, and using NF-κB molecules in the Raji nuclear extract (ACTIVE MOTIF) for Rel-B and p52. As the primary antibodies, anti-NF-κB p50 antibody, anti-NF-κB p52 antibody and anti-Rel-B antibody were used, respectively, and the secondary antibody was HRP-labeled anti-rabbit IgG antibody in all cases.
(§5) More concretely, the above-described measurements were carried out as follows: Each oligonucleotide solution was serially diluted with Complete Binding Buffer to prepare test samples. Each of the test samples was added to the wells in an amount of 30 μL per well, and Complete Binding Buffer was added to the wells of the control and blank. Nuclear extract diluted with Complete Lysis Buffer was added to the wells in an amount of 20 μL per well, and Complete Lysis Buffer was added to the wells of blank. After incubation for 1 hour with shaking, each well was washed with 1× Wash Buffer, and the primary antibody was added, followed by incubation for 1 hour. Each well was washed with 1× Wash Buffer, and the secondary antibody was added, followed by incubation for 1 hour. Each well was washed with 1× Wash Buffer, and the Developing Solution was added. After allowing coloration for 10 minutes, the Stop Solution was added to stop the reaction, and the absorbances at 450 nm and 630 nm were measured.
(§6) The absorbance at 630 nm was subtracted from the absorbance at 450 nm and the mean value of the blanks was further subtracted from the resultant, and the percentage of the mean value of each concentration based on the mean value of the controls was calculated.

[3] = target: NF-kB p50 (NFKB1) (UniProt P19838 P19838:1-433); test: competition; conditions: protein: extract; tags: TPA and CI-stimulated Jurkat nuclear extract, Active Motif
Chain of NF-kB p50 (NFKB1) (P19838 1-433, one chain of several): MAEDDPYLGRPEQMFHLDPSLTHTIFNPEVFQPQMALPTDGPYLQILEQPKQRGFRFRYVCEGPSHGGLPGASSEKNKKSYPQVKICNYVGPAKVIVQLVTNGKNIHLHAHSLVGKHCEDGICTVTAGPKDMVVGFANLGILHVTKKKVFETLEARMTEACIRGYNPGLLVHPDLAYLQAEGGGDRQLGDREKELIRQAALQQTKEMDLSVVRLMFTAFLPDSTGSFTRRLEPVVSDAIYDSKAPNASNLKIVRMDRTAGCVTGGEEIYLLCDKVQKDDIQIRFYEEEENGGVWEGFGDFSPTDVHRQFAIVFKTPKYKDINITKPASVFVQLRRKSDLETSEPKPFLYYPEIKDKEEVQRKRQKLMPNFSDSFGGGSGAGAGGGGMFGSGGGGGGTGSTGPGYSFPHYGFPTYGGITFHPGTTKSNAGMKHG
Protocol: as §4, §5, §6

[4] = target: T2, NF-kB p65 (RelA); test: competition; conditions: protein: extract; tags: TPA and CI-stimulated Jurkat nuclear extract, Active Motif TransAM kit
Protocol: The binding capacity of each SODN to NF-κB was evaluated by measuring the remaining free NF-κB after reacting each SODN with NF-κB (p65), using a commercially available kit (TransAM Kit (NF-κB, p65, ACTIVE MOTIF) for measuring NF-κB, and using NF-κB molecules in the Jurkat, TPA and CI-Stimulated, Nuclear Extract (nuclear extract of Jurkat cells stimulated with a phorbol ester (TPA) and a calcium ionophore (CI)). The measurement was performed in accordance with the instructions attached to the kit. The kit was made for quantifying the NF-κB bound to the solid phase by ELISA after adding an NF-κB solution to the wells in which the NF-κB (p65 protein) consensus binding sequence was immobilized and after washing the resultant. By this measurement method, the higher the binding capacity of the oligonucleotide to the NF-κB, the smaller amount of the NF-κB quantified by the ELISA.
More concretely, the above-described measurement was carried out as follows concretely: Each SODN solution was serially diluted with Complete Binding Buffer contained in the kit to prepare test samples (common ratio: 3-fold, 4 times, n=3). To each well, 30 μL of the test sample was added. To the wells of the control and blank, Complete Binding Buffer was added. To each well, 20 μL of the Jurkat, TPA and CI-Stimulated, Nuclear Extract contained in the kit, after dilution with Complete Lysis Buffer to a concentration of 125 μg/mL, was added. To the wells of the blank, Complete Lysis Buffer was added. After incubation for 1 hour with shaking, each well was washed with 1× Wash Buffer contained in the kit, and an anti-NF-κB (p65 protein) antibody was added, followed by incubation for 1 hour. Each well was washed with 1× Wash Buffer, and the Developing Solution contained in the kit was added. After allowing coloration for 10 minutes, the Stop Solution was added to stop the reaction, and the absorbances at 450 nm and 630 nm were measured.
The binding capacities of the partially phosphorothioated oligonucleotides (the bonds between only all of the nucleotides constituting the consensus sequence in both strands are phosphorothioated, hereinafter also referred to as “PSODN”) of SODNs 7, 8, 9, 16, 17 and 30 of the present invention to the NF-κB (p65 protein) were tested in the same manner as described above.

[5] = target: T2, NF-kB p65 (RelA); test: competition; ELISA competition with immobilized consensus site; 4.77 in Table 3-2, 4.93 in Table 4; Table 7 lists 4.93, 4.30, 3.24 in PSODN, FSODN, ODN columns; conditions: protein: extract; tags: TPA and CI-stimulated Jurkat nuclear extract, Active Motif TransAM kit
[6] = target: T2, NF-kB p65 (RelA); test: competition; primary screen >5; conditions: protein: extract; tags: TPA and CI-stimulated Jurkat nuclear extract, Active Motif TransAM kit
Protocol: as §1, §2, §3

[7] = target: T2, NF-kB p65 (RelA); test: competition; primary screen 2.01; conditions: protein: extract; tags: TPA and CI-stimulated Jurkat nuclear extract, Active Motif TransAM kit
Protocol: as §1, §2, §3

[8] = target: T2, NF-kB p65 (RelA); test: competition; primary screen 1.61; conditions: protein: extract; tags: TPA and CI-stimulated Jurkat nuclear extract, Active Motif TransAM kit
Protocol: as §1, §2, §3

[9] = target: T2, NF-kB p65 (RelA); test: competition; primary screen 2.23; conditions: protein: extract; tags: TPA and CI-stimulated Jurkat nuclear extract, Active Motif TransAM kit
Protocol: as §1, §2, §3

[10] = target: T2, NF-kB p65 (RelA); test: competition; primary screen 1.31; conditions: protein: extract; tags: TPA and CI-stimulated Jurkat nuclear extract, Active Motif TransAM kit
Protocol: as §1, §2, §3

[11] = target: T2, NF-kB p65 (RelA); test: competition; conditions: protein: extract; tags: TPA and CI-stimulated Jurkat nuclear extract, Active Motif TransAM kit; remark: listed apart in the source
Protocol: To study the influence by the phosphorothioation site in the oligonucleotide sequence, decoy oligonucleotides (FSODN) in which only the flanking sequences were phosphorothioated and decoy oligonucleotides (ODN) without phosphorothioation having the same sequences, respectively, were synthesized. The binding inhibition activities were compared under the conditions of common ratio of 3-fold, 6 times, n=2. The binding inhibition tests against NF-κB p65 protein was carried out using NF-κB, p65 TransAM Kit (produced by ACTIVE MOTIF), and using NF-κB protein molecules in the Jurkat, TPA and CI-Stimulated, Nuclear
Extract (produced by ACTIVE MOTIF). The testing method was the same as in the above-described Example 5. The term “only the flanking sequences were phosphorothioated” means that the bonds in the flanking sequences and the bonds between the respective flanking sequences and the core were phosphorothioated. For example, as for Sequence 7, it is CsGsCs[…]sAsGsC. The values for PSODNs are those obtained in the secondary screening (above-described Table 4).

[12] = target: T2, NF-kB p65 (RelA); test: competition; primary screen 1.37; conditions: protein: extract; tags: TPA and CI-stimulated Jurkat nuclear extract, Active Motif TransAM kit
Protocol: as §1, §2, §3

Row | Binder | IC50 [2] [nM] | IC50 [3] [nM] | IC50 [4] [nM] | further results
1 | B1 |  |  |  | IC50 [1]: 2.58 nM
2 | B2 | 3.01 | 1.02 | 0.54 | 
3 | B3 | 4.29 | 0.91 | 0.48 | 
4 | B4 | 8.42 | 8.45 |  | IC50 [5]: 5.26 nM
5 | B5 |  |  |  | IC50 [6]: 7.33 nM
6 | B6 | 3.22 | 1.08 | 0.63 | 
7 | B7 |  |  |  | IC50 [7]: 1.88 nM
8 | B8 |  |  |  | IC50 [8]: 1.75 nM
9 | B9 |  |  |  | IC50 [9]: 2.87 nM
10 | B10 |  |  |  | IC50 [10]: 2.33 nM
11 | B11 | 2.11 | 0.69 | 0.48 | 
12 | B12 |  |  |  | IC50 [11]: 1.11 nM
13 | B13 |  |  |  | IC50 [10]: 1.81 nM
14 | B14 |  |  |  | IC50 [7]: 2.12 nM
15 | B15 | 2.37 | 0.8 | 0.41 | 
16 | B16 |  |  |  | IC50 [12]: 1.98 nM
17 | B17 | 1.55 | 0.91 | 0.54 | 
